Measured values: IntAct's records for PubMed 31515488

B1: BUD13 homolog (Homo sapiens), Q9BRD0 (parent)
chain: MAAAPPLSKAEYLKRYLSGADAGVDRGSESGRKRRKKRPKPGGAGGKGMRIVDDDVSWTAISTTKLEKEEEEDDGDLPVVAEFVDERPEEVKQMEAFRSSAKWKLLGGHNEDLPSNRHFRHDTPDSSPRRVRHGTPDPSPRKDRHDTPDPSPRRARHDTPDPSPLRGARHDSDTSPPRRIRHDSSDTSPPRRARHDSPDPSPPRRPQHNSSGASPRRVRHDSPDPSPPRRARHGSSDISSPRRVHNNSPDTSRRTLGSSDTQQLRRARHDSPDLAPNVTYSLPRTKSGKAPERASSKTSPHWKESGASHLSFPKNSKYEYDPDISPPRKKQAKSHFGDKKQLDSKGDCQKATDSDLSSPRHKQSPGHQDSDSDLSPPRNRPRHRSSDSDLSPPRRRQRTKSSDSDLSPPRRSQPPGKKAAHMYSGAKTGLVLTDIQREQQELKEQDQETMAFEAEFQYAETVFRDKSGRKRNLKLERLEQRRKAEKDSERDELYAQWGKGLAQSRQQQQNVEDAMKEMQKPLARYIDDEDLDRMLREQEREGDPMANFIKKNKAKENKNKKVRPRYSGPAPPPNRFNIWPGYRWDGVDRSNGFEQKRFARLASKKAVEELAYKWSVEDM
partner: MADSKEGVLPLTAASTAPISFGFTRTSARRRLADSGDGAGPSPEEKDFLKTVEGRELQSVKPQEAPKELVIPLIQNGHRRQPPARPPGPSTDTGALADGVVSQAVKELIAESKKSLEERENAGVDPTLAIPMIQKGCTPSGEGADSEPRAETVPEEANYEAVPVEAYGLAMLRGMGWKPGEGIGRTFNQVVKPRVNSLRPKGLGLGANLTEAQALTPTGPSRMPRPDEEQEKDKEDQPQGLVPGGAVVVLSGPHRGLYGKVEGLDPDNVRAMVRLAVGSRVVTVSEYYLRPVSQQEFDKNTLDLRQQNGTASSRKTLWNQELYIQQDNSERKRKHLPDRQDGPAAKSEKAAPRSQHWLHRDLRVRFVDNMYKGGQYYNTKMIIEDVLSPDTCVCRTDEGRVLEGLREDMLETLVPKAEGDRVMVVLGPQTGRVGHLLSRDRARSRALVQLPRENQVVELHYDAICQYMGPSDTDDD
B2: Glutathione S-transferase Mu 3 (Homo sapiens), P21266 (parent)
chain: MSCESSMVLGYWDIRGLAHAIRLLLEFTDTSYEEKRYTCGEAPDYDRSQWLDVKFKLDLDFPNLPYLLDGKNKITQSNAILRYIARKHNMCGETEEEKIRVDIIENQVMDFRTQLIRLCYSSDHEKLKPQYLEELPGQLKQFSMFLGKFSWFAGEKLTFVDFLTYDILDQNRIFDPKCLDEFPNLKAFMCRFEALEKIAAYLQSDQFCKMPINNKMAQWGNKPVC
partner: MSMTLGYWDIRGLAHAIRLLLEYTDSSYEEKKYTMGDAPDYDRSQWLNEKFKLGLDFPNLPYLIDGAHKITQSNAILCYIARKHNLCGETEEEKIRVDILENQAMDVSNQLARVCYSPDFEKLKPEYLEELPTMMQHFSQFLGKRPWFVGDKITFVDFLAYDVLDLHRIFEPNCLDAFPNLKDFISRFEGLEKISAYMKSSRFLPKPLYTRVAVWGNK
B3: Nuclear RNA export factor 3 (Homo sapiens), Q9H4D5 (parent)
chain: MSLPSGHTTGHTDQVVQRRARCWDIYQRRFSSRSEPVNPGMHSSSHQQQDGDAAMHGAHMDSPVRYTPYTISPYNRKGSFRKQDQTHVNMEREQKPPERRMEGNMPDGTLGSWFKITVPFGIKYNEKWLLNLIQNECSVPFVPVEFHYENMHASFFVENASIAYALKNVSGKIWDEDNEKISIFVNPAGIPHFVHRELKSEKVEQIKLAMNQQCDVSQEALDIQRLPFYPDMVNRDTKMASNPRKCMAASLDVHEENIPTVMSAGEMDKWKGIEPGEKCADRSPVCTTFSDTSSNINSILELFPKLLCLDGQQSPRATLCGTEAHKRLPTCKGSFFGSEMLKNLVLQFLQQYYLIYDSGDRQGLLSAYHDEACFSLSIPFNPEDSAPSSFCKFFKDSRNIKILKDPYLRGELLKHTKLDIVDSLSALPKTQHDLSSFLVDMWYQTEWMLCFSVNGVFKEVEGQSQGSVLAFTRTFIATPGSSSSLCIVNDKLFVRDTSHQGTQSALFTLVPTAFSSSVPAFSQEQQKMLPS
partner: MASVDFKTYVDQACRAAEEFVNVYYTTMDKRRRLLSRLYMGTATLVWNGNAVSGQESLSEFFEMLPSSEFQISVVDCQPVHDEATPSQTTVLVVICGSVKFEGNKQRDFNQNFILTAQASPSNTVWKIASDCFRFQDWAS
B4: E3 ubiquitin-protein ligase CCNB1IP1 (Homo sapiens), Q9NPC3 (parent)
chain: MSLCEDMLLCNYRKCRIKLSGYAWVTACSHIFCDQHGSGEFSRSPAICPACNSTLSGKLDIVRTELSPSEEYKAMVLAGLRPEIVLDISSRALAFWTYQVHQERLYQEYNFSKAEGHLKQMEKIYTQQIQSKDVELTSMKGEVTSMKKVLEEYKKKFSDISEKLMERNRQYQKLQGLYDSLRLRNITIANHEGTLEPSMIAQSGVLGFPLGNNSKFPLDNTPVRNRGDGDGDFQFRPFFAGSPTAPEPSNSFFSFVSPSRELEQQQVSSRAFKVKRI
B5: Notch homolog 2 N-terminal-like protein A (Homo sapiens), Q7Z3S9 (parent)
chain: MCVTYHNGTGYCKCPEGFLGEYCQHRDPCEKNRCQNGGTCVAQAMLGKATCRCASGFTGEDCQYSTSHPCFVSRPCLNGGTCHMLSRDTYECTCQVGFTGKECQWTDACLSHPCANGSTCTTVANQFSCKCLTGFTGQKCETDVNECDIPGHCQHGGTCLNLPGSYQCQCLQGFTGQYCDSLYVPCAPSPCVNGGTCRQTGDFTFECNCLPETVRRGTELWERDREVWNGKEHDEN
partner: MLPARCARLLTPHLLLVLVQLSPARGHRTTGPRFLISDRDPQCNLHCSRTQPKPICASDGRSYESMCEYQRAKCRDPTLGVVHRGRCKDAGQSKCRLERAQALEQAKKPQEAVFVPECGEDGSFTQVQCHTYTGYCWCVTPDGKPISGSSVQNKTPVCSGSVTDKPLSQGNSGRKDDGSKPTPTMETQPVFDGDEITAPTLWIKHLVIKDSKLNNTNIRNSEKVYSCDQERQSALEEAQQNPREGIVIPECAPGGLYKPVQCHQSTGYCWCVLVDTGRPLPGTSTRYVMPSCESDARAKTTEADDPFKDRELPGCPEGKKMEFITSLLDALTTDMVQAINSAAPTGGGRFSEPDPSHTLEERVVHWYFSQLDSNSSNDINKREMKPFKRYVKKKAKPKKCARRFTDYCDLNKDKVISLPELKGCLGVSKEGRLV
B6: Probable thioesterase PNKD (Homo sapiens), Q8N490 (parent)
chain: MAAVVAATALKGRGARNARVLRGILAGATANKASHNRTRALQSHSSPEGKEEPEPLSPELEYIPRKRGKNPMKAVGLAWYSLYTRTWLGYLFYRQQLRRARNRYPKGHSKTQPRLFNGVKVLPIPVLSDNYSYLIIDTQAQLAVAVDPSDPRAVQASIEKEGVTLVAILCTHKHWDHSGGNRDLSRRHRDCRVYGSPQDGIPYLTHPLCHQDVVSVGRLQIRALATPGHTQGHLVYLLDGEPYKGPSCLFSGDLLFLSGCGRTFEGNAETMLSSLDTVLGLGDDTLLWPGHEYAEENLGFAGVVEPENLARERKMQWVQRQRLERKGTCPSTLGEERSYNPFLRTHCLALQEALGPGPGPTGDDDYSRAQLLEELRRLKDMHKSK
partner: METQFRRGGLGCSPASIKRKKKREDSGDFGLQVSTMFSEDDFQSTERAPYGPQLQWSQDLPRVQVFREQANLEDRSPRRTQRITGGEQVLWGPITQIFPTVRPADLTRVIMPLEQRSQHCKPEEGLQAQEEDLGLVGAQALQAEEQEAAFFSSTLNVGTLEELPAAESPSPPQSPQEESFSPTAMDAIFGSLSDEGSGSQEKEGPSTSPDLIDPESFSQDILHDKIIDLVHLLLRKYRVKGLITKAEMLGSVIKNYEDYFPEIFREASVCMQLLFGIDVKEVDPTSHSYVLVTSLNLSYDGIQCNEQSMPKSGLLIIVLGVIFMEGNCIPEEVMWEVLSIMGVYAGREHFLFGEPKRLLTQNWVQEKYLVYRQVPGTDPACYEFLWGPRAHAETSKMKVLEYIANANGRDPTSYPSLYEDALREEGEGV
B7: Protein FAM9B (Homo sapiens), Q8IZU0 (parent)
chain: MAAWGKKHAGKDPVRDECEERNRFTETREEDVTDEHGEREPFAETDEHTGANTKKPEDTAEDLTAKRKRMKMDKTCSKTKNKSKHALRKKQLKRQKRDYIHSLKLLNVLEEYITDEQKEEEEEEGEEEELIRIFQEQQKKWQQYRSVRRERLKEMKLLRDQFVKALEDFEDLCDRVFSDEDSELDN
partner: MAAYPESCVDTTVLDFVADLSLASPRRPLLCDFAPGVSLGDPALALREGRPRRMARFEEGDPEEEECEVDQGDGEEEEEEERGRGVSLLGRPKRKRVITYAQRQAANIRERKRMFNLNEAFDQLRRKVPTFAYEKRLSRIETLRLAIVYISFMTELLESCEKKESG
B8: TBC1 domain family member 7 (Homo sapiens), Q9P0N9 (parent)
chain: MTEDSQRNFRSVYYEKVGFRGVEEKKSLEILLKDDRLDTEKLCTFSQRFPLPSMYRALVWKVLLGILPPHHESHAKVMMYRKEQYLDVLHALKVVRFVSDATPQAEVYLRMYQLESGKLPRSPSFPLEPDDEVFLAIAKAMEEMVEDSVDCYWITRRFVNQLNTKYRDSLPQLPKAFEQYLNLEDGRLLTHLRMCSAAPKLPYDLWFKRCFAGCLPESSLQRVWDKVVSGSCKILVFVAVEILLTFKIKVMALNSAEKITKFLENIPQDSSDAIVSKAIDLWHKHCGTPVHSS

Variants of: B1
Details: with gpkow_human GPKOW

Variant | effect of a mutation on the interaction
P148L | with no effect

Variants of: B2
Details: with gstm4_human GSTM4, Q03013

Variant | effect of a mutation on the interaction
R86H | disrupting interaction strength
L23P | disrupting interaction strength

Variants of: B3
Details: with nxt1_human NXT1, Q9UKK6

Variant | effect of a mutation on the interaction
R409W | disrupting interaction strength

Variants of: B3
Details: with nxt1_human NXT1, Q9UKK6
Remark: another data set of the same source

Variant | effect of a mutation on the interaction
T9K | with no effect

Variants of: B4
Details: with aapk2_human PRKAA2, P54646
aapk2_human PRKAA2, P54646, sequence (P54646 whole entry, looked up): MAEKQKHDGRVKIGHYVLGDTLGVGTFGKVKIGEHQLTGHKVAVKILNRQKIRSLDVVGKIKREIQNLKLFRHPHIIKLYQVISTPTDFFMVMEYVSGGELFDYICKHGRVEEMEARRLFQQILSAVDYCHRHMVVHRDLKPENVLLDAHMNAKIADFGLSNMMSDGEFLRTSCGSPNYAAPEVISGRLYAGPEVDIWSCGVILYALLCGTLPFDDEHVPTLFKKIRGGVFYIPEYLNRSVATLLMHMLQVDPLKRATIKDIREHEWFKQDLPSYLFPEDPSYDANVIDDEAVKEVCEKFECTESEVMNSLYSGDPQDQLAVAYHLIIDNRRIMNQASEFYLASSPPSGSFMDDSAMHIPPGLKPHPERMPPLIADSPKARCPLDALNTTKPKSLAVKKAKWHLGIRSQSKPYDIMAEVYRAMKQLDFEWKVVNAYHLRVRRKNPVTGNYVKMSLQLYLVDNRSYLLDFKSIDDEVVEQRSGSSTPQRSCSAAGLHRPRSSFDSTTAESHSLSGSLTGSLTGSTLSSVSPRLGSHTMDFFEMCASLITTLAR

Variant | effect of a mutation on the interaction
Y106H | with no effect
T187A | with no effect
F41L | with no effect
N212D | with no effect
R104H | disrupting interaction strength

Variants of: B4
Details: with KRT15, P19012
KRT15, P19012, sequence (P19012 whole entry): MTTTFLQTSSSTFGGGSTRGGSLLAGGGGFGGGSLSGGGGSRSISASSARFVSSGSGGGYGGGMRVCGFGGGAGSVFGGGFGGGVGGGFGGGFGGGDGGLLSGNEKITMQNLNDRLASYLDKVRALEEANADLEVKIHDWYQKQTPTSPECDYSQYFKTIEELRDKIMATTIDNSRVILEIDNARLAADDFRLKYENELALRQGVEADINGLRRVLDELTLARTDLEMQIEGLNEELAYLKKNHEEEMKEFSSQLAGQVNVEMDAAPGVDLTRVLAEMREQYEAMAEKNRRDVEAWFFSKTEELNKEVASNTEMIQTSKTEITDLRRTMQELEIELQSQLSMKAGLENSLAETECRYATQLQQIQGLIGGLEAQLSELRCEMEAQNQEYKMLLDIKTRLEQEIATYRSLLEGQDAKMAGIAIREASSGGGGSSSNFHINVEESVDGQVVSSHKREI

Variant | effect of a mutation on the interaction
Y106H | disrupting interaction strength
T187A | with no effect
F41L | with no effect
N212D | with no effect
R104H | with no effect

Variants of: B4
Details: with keap1_human KEAP1, Q14145
keap1_human KEAP1, Q14145, sequence (Q14145 whole entry): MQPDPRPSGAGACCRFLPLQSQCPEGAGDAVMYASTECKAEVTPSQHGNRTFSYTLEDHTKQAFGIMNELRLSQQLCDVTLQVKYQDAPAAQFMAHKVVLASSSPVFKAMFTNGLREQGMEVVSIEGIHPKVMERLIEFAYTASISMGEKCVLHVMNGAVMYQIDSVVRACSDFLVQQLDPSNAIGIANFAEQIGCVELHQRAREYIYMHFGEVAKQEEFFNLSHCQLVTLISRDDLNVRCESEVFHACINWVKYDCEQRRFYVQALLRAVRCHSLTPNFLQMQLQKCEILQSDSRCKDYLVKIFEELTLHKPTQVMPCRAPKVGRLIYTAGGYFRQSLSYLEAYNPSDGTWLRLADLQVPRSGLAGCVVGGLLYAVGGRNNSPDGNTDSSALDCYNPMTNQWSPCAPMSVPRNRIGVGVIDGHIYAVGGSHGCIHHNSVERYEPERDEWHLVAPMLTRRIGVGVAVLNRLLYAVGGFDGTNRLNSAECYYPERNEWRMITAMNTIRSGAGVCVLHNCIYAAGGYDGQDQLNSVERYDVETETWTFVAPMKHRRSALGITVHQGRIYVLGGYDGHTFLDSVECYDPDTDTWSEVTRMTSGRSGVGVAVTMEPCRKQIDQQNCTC

Variant | effect of a mutation on the interaction
Y106H | with no effect
T187A | with no effect
F41L | with no effect
N212D | with no effect
R104H | with no effect

Variants of: B5
Details: with smoc1_human SMOC1, Q9H4F8

Variant | effect of a mutation on the interaction
A115T | with no effect
R74Q | with no effect

Variants of: B6
Details: with magab_human MAGEA11, P43364

Variant | effect of a mutation on the interaction
R377Q | with no effect

Variants of: B7
Details: with fer3l_human FERD3L

Variant | effect of a mutation on the interaction
R23H | with no effect

Variants of: B8
Details: with hook1_human HOOK1, Q9UJC3
hook1_human HOOK1, Q9UJC3, sequence (Q9UJC3 whole entry): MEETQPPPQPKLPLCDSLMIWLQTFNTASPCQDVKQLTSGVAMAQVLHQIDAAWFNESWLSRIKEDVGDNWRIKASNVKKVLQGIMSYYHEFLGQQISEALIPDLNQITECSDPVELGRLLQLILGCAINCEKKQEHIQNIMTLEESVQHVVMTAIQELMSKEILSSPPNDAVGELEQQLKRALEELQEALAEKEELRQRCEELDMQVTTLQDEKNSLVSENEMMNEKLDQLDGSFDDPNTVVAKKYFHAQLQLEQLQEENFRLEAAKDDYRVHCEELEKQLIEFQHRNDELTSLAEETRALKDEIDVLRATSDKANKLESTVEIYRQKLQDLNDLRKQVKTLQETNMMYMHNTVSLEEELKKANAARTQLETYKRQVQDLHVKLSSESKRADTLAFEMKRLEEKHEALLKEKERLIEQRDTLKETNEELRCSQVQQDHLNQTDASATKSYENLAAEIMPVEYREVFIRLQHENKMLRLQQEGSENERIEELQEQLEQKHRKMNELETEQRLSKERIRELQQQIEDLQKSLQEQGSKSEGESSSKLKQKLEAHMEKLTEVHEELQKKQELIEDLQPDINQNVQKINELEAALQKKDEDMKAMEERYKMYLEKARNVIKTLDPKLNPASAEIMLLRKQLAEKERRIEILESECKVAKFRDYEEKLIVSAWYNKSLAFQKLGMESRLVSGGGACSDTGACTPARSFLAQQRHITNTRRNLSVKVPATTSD

Variant | effect of a mutation on the interaction
L67W | disrupting interaction strength

Variants of: B8
Details: with KRT19, P08727
KRT19, P08727, sequence (P08727 whole entry): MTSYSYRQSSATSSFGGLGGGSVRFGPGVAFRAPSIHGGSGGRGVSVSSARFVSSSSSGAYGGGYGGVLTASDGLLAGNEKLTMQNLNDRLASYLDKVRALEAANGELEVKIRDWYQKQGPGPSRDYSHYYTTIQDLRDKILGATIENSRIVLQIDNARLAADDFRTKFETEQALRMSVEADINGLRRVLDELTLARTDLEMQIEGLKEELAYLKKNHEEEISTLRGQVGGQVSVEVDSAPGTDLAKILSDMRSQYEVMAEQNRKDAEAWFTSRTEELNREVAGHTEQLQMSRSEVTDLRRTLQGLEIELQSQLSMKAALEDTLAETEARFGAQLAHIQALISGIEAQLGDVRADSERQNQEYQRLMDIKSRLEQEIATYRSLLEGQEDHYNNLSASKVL

Variant | effect of a mutation on the interaction
L67W | disrupting interaction strength
